These are literature values, as cited in publication PMC1074345.

The series has as its target Angiotensin II AngII (Homo sapiens) (UniProt P01019). Kind of series: radioligand.
UniProt P01019, sequence (P01019 whole entry, looked up): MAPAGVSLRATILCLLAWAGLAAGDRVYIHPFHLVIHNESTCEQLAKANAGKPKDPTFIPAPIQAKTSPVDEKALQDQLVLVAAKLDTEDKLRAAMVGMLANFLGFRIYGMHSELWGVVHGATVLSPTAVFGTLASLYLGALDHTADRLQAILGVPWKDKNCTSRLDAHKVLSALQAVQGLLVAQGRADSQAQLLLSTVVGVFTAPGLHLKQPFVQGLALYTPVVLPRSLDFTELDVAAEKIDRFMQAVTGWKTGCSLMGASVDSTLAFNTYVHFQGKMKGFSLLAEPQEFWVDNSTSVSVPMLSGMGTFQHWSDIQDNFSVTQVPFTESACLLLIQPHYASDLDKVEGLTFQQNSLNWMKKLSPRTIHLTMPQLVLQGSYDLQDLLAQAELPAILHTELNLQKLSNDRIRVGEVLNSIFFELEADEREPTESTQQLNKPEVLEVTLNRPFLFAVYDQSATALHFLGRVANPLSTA

As usually defined, the Kd is the equilibrium constant for the complex coming apart. Take AT2 receptor (from UniProt P50052): the dissociation constant Kd is 0.17 nM. Regarding AT1 receptor (from UniProt P30556), the Kd was 0.36 nM.
